Experimental data reported in patent US20240352102A1 (UNITED STATES GOVERNMENT AS REPRESENTED BY THE DEPARTMENT …, published 2024).

What was measured:
[1] = target: T1, Peptide_021; assay: peptide microarray
T1 peptide: DTPSLEDEAAGHVTQ

[2] = target: T2, Peptide_005; assay: peptide microarray
T2 peptide: TYGLGDRKDQGGYTM

[3] = target: T3, Peptide_002; assay: peptide microarray
T3 peptide: RQEFEVMEDHAGTYG

[4] = target: T4, Peptide_014; assay: peptide microarray
T4 peptide: EDGSEEPGSETSDAK

[5] = target: T5, Peptide_023; assay: peptide microarray
T5 peptide: AAGHVTQARMVSKSK

[6] = target: T6, Peptide_031; assay: peptide microarray
T6 peptide: KIATPRGAAPPGQKG

[7] = target: T7, Peptide_030; assay: peptide microarray
T7 peptide: DGKTKIATPRGAAPP

[8] = target: T8, Peptide_012; assay: peptide microarray
T8 peptide: ESPLQTPTEDGSEEP

[9] = target: T9, Peptide_011; assay: peptide microarray
T9 peptide: AGLKESPLQTPTEDG

[10] = target: T10, Peptide_004; assay: peptide microarray
T10 peptide: DHAGTYGLGDRKDQG

[11] = target: T11, Peptide_006; assay: peptide microarray
T11 peptide: GDRKDQGGYTMHQDQ

[12] = target: T12, Alzheimer's disease tau (ADtau) fibrillar material (human, UniProt P10636-8 2-441, limits assumed, pathological tau with phosphorylation (pS422 detected); sites otherwise not stated); assay: native dot blot densitometry, 20 ng per dot, reference recombinant tau
T12 construct: Aggregated, brain-derived material; also called detergent insoluble pathological tau purified from Alzheimer's disease brain tissue; Alzheimer's disease derived tau
Description: Shown is a native protein dot blot loaded with equivalent mass of E. coli derived recombinant tau (top row, 20 ng) or Alzheimer's disease derived tau (ADtau) (bottom row, 20 ng). […] C57BL/6 (B6) mouse immunostaining included as controls. Insets depict TRC35 immunoreactivity at higher magnification in the CA1. Scale bar=500 um at low power magnification and 50 μm in the insets.
Characterization of TRC35 monoclonal antibodies. TRC35 monoclonal antibodies were used to dot blot equivalent amounts (20 ng) E. coli-expressed native recombinant tau protein and Alzheimer's disease tau (ADtau) fibrillar material. […] Protein preparations were not denatured prior to blotting to preserve native conformations expected of a conformation dependent monoclonal antibody. Dot blots were performed using the Bio-Dot Microfiltration Apparatus as recommended by the manufacturer (Bio-Rad, catalog #170-6545). Membranes were blocked in blocking solution [20 mM Tris, 500 mM NaCl, 1% bovine serum albumin (w/v) | and probed with TRC35 at 1:50,000 as primary antibody in TTBS buffer [20 mM Tris, 500 mM NaCl, 1% bovine serum albumin (w/v), 0.5% (w/v) Tween20]. Blots were washed 3 times in TTBS to remove excess primary antibody. […] Immunoreactivity was measured using Clarity Western ECL reagents (Bio-Rad) Images were scanned and quantitated using LI-COR Image Studio software.

[13] = target: T13, Peptide_092; assay: peptide microarray
T13 peptide: YKSPVVSGDTSPRHL

[14] = target: T14, Peptide_077; assay: peptide microarray
T14 peptide: GGQVEVKSEKLDFKD

[15] = target: T15, Peptide_076; assay: peptide microarray
T15 peptide: HKPGGGQVEVKSEKL

[16] = target: T16, Peptide_093; assay: peptide microarray
T16 peptide: VVSGDTSPRHLSNVS

[17] = target: T17, Peptide_101; assay: peptide microarray
T17 peptide: TLADEVSASLAKQGL

[18] = target: T18, Peptide_096; assay: peptide microarray
T18 peptide: NVSSTGSIDMVDSPQ

[19] = target: T19, Peptide_086; assay: peptide microarray
T19 peptide: KIETHKLTFRENAKA

[20] = target: T20, Peptide_090; assay: peptide microarray
T20 peptide: TDHGAEIVYKSPVVS

[21] = target: T21, Peptide_087; assay: peptide microarray
T21 peptide: HKLTFRENAKAKTDH

[22] = target: T22, Peptide_100; assay: peptide microarray
T22 peptide: ATLADEVSASLAKQG

[23] = target: T23, Peptide_089; assay: peptide microarray
T23 peptide: AKAKTDHGAEIVYKS

[24] = target: T24, Peptide_091; assay: peptide microarray
T24 peptide: AEIVYKSPVVSGDTS

[25] = target: T25, Peptide_097; assay: peptide microarray
T25 peptide: TGSIDMVDSPQLATL

[26] = target: T26, Peptide_084; assay: peptide microarray
T26 peptide: HVPGGGNKKIETHKL

[27] = target: T27, Peptide_088; assay: peptide microarray
T27 peptide: FRENAKAKTDHGAEI

[28] = target: T28, Peptide_078; assay: peptide microarray
T28 peptide: EVKSEKLDFKDRVQS

[29] = target: T29, Peptide_094; assay: peptide microarray
T29 peptide: DTSPRHLSNVSSTGS

[30] = target: T30, Peptide_081; assay: peptide microarray
T30 peptide: VQSKIGSLDNITHVP

[31] = target: T31, Peptide_095; assay: peptide microarray
T31 peptide: RHLSNVSSTGSIDMV

[32] = target: T32, Peptide_075; assay: peptide microarray
T32 peptide: GNIHHKPGGGQVEVK

[33] = target: T33, Peptide_082; assay: peptide microarray
T33 peptide: IGSLDNITHVPGGGN

[34] = target: T34, Peptide_080; assay: peptide microarray
T34 peptide: FKDRVQSKIGSLDNI

[35] = target: T35, Peptide_083; assay: peptide microarray
T35 peptide: DNITHVPGGGNKKIE

[36] = target: T36, Peptide_079; assay: peptide microarray
T36 peptide: EKLDFKDRVQSKIGS

T12 sequence (P10636 other isoform, or with tags, fused parts or gaps limits assumed): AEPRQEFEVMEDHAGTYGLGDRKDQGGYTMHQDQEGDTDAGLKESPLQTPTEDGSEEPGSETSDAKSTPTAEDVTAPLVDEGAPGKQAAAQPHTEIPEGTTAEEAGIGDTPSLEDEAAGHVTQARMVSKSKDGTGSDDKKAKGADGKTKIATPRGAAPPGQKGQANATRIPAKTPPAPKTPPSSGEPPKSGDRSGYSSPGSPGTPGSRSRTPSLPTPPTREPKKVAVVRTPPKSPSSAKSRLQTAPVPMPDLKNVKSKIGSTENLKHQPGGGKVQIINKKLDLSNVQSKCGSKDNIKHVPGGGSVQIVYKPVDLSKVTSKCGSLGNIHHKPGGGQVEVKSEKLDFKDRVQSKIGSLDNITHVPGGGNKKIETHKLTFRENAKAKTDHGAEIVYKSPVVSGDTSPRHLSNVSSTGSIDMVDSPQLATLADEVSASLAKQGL

binding result [1]: no binding (tested: 1 ug/ml) | binding result [2]: no binding (tested: 1 ug/ml) | binding result [3]: no binding (tested: 1 ug/ml) | binding result [4]: no binding (tested: 1 ug/ml) | binding result [5]: no binding (tested: 1 ug/ml) | binding result [6]: no binding (tested: 1 ug/ml) | binding result [7]: no binding (tested: 1 ug/ml) | binding result [8]: no binding (tested: 1 ug/ml) | binding result [9]: no binding (tested: 1 ug/ml) | binding result [10]: no binding (tested: 1 ug/ml) | binding result [11]: no binding (tested: 1 ug/ml) | fold selectivity for ADtau over native tau [12]: 8 fold | binding result [13]: no binding (tested: 1 ug/ml) | binding result [14]: no binding (tested: 1 ug/ml) | binding result [15]: no binding (tested: 1 ug/ml) | binding result [16]: no binding (tested: 1 ug/ml) | binding result [17]: no binding (tested: 1 ug/ml) | binding result [18]: no binding (tested: 1 ug/ml) | binding result [19]: no binding (tested: 1 ug/ml) | binding result [20]: no binding (tested: 1 ug/ml) | binding result [21]: no binding (tested: 1 ug/ml) | binding result [22]: no binding (tested: 1 ug/ml) | binding result [23]: no binding (tested: 1 ug/ml) | binding result [24]: no binding (tested: 1 ug/ml) | binding result [25]: no binding (tested: 1 ug/ml) | binding result [26]: no binding (tested: 1 ug/ml) | binding result [27]: no binding (tested: 1 ug/ml) | binding result [28]: no binding (tested: 1 ug/ml) | binding result [29]: no binding (tested: 1 ug/ml) | binding result [30]: no binding (tested: 1 ug/ml) | binding result [31]: no binding (tested: 1 ug/ml) | binding result [32]: no binding (tested: 1 ug/ml) | binding result [33]: no binding (tested: 1 ug/ml) | binding result [34]: no binding (tested: 1 ug/ml) | binding result [35]: no binding (tested: 1 ug/ml) | binding result [36]: no binding (tested: 1 ug/ml)
B1: mAb TRC35 (antibody, V domains shown)
VH: QVQLQQPGTELVKPGASVKLSCKASGYTFTSYWLQWVKQRPGQGLEWIGEIDPSDSYTNYNQKFKGKATLTVDTSSSTAYMQLSSLTSEDSAVYYCATLTGSWGQGTTLAVSS
VL: DVLLTQTPLSLPVSLGDQASISCRASQSIVDSNGNTFLEWYLQKSGQSPKVLIYKVSNRFSGVPDRFSGRGSGTDFTLKISRVEAEDLGVYYCFQGSHVPYTFGGGTKLEIK
notes: Mouse hybridoma monoclonal antibody raised in tau knockout mice against tau/poly(A) RNA complexes; IgG1 isotype, kappa light chain; also called TRC35 monoclonal antibody; hybridoma clone #35
